Six sequences from the supplement of paper PMC5998384 can be followed below.

Data set [1] relates to HeLa Kyoto. Nature of the data set: melting temperature (median over replicates), in situ; higher = more thermally stable.
The test system of data set [2] is HeLa Kyoto. Nature of the data set: thermal stability score vs G1/S (z-score of summed log2 fold changes over temperatures); higher = more thermally stable than in G1/S.
Data set [3] has as its system HeLa Kyoto. Briefly: solubility change mitosis vs G1/S (difference of NP-40 vs SDS log2 ratios) (log2 ratio difference); higher = more soluble in mitosis.
Data set [4] relates to HeLa Kyoto. Briefly: solubility in G1/S (NP-40 vs SDS abundance) (log2 ratio); higher = more soluble. As to conditions: cell cycle stage: G1/S.
Where [5] appears, read: cell cycle stage: early G1 (4.5 h after nocodazole release).
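Throughout, for melting temperature (median over replicates), in situ: HeLa Kyoto cells synchronized by double thymidine or nocodazole block, proteins quantified by TMT10plex mass spectrometry, three independent biological replicates.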
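Throughout, for solubility change mitosis vs G1/S (difference of NP-40 vs SDS log2 ratios): synchronized HeLa Kyoto cells (double thymidine block for G1/S, nocodazole release for mitosis), protein amounts in NP-40 versus SDS lysates quantified by mass spectrometry, three biological replicates.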
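Throughout, for solubility in G1/S (NP-40 vs SDS abundance): HeLa Kyoto cells arrested at G1/S by double thymidine block, proteins quantified by TMT10plex mass spectrometry in mild NP-40 versus SDS extracts, three biological replicates.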
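Throughout, for thermal stability score vs G1/S (z-score of summed log2 fold changes over temperatures): synchronized HeLa Kyoto cells, proteins quantified by TMT10plex mass spectrometry, three biological replicates, mitosis taken 0.5 h after nocodazole release, G1/S directly after double thymidine block.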

Regarding “MSSEEGKLFVGGLNFNTDEQALEDHFSSFGPISEVVVVKDRETQRSRGFGFITFTNPEHASVAMRAMNGESLDGRQIRVDHAGKSARGTRGGGFGAHGRGRSYSRGGGDQGYGSGRYYDSRPGGYGYGYGRSRDYNGRNQGGYDRYSGGNYRDNYDN [RBM3]”, the melting temperature in the data set on HeLa Kyoto [1] (cell cycle stage: G1/S) amounted to 54.2 °C; in the data set on HeLa Kyoto [1] (cell cycle stage: mitosis), 52.7 °C. Besides, the values for the thermal stability score with HeLa Kyoto [2] (setting [5]) and with HeLa Kyoto [2] (cell cycle stage: mitosis) were -2.01 and -4.74, respectively. Also, the “solubility change mitosis (log2)” value in the data set with HeLa Kyoto [3] was 0.436. Also, the “solubility in G1/S (log2)” value with HeLa Kyoto [4] stood at 0.11.

For the sequence “MSSEPPPPPQPPTHQASVGLLDTPRSRERSPSPLRGNVVPSPLPTRRTRTFSATVRASQGPVYKGVCKCFCRSKGHGFITPADGGPDIFLHISDVEGEYVPVEGDEVTYKMCSIPPKNEKLQAVEVVITHLAPGTKHETWSGHVISS [CARHSP1]”, the melting temperature with HeLa Kyoto [1] (cell cycle stage: G1/S) was 54.7 °C; in the data set on HeLa Kyoto [1] (cell cycle stage: mitosis), 55.2 °C. Further, the thermal stability score in the data set on HeLa Kyoto [2] (setting [5]) is -0.479; in the data set on HeLa Kyoto [2] (cell cycle stage: mitosis), -0.699. For the same sequence, in the data set with HeLa Kyoto [3], the “solubility change mitosis (log2)” value is 0.089. Moreover, the “solubility in G1/S (log2)” value in the data set on HeLa Kyoto [4] turned out to be 0.691.

Consider “MSSLAVRDPAMDRSLRSVFVGNIPYEATEEQLKDIFSEVGSVVSFRLVYDRETGKPKGYGFCEYQDQETALSAMRNLNGREFSGRALRVDNAASEKNKEELKSLGPAAPIIDSPYGDPIDPEDAPESITRAVASLPPEQMFELMKQMKLCVQNSHQEARNMLLQNPQLAYALLQAQVVMRIMDPEIALKILHRKIHVTPLIPGKSQSVSVSGPGPGPGPGLCPGPNVLLNQQNPPAPQPQHLARRPVKDIPPLMQTPIQGGIPAPGPIPAAVPGAGPGSLTPGGAMQPQLGMPGVGPVPLERGQVQMSDPRAPIPRGPVTPGGLPPRGLLGDAPNDPRGGTLLSVTGEVEPRGYLGPPHQGPPMHHASGHDTRGPSSHEMRGGPLGDPRLLIGEPRGPMIDQRGLPMDGRGGRDSRAMETRAMETEVLETRVMERRGMETCAMETRGMEARGMDARGLEMRGPVPSSRGPMTGGIQGPGPINIGAGGPPQGPRQVPGISGVGNPGAGMQGTGIQGTGMQGAGIQGGGMQGAGIQGVSIQGGGIQGGGIQGASKQGGSQPSSFSPGQSQVTPQDQEKAALIMQVLQLTADQIAMLPPEQRQSILILKEQIQKSTGAS [CSTF2T]”, for which the melting temperature was 52.6 °C with HeLa Kyoto [1] (cell cycle stage: G1/S) and 51.9 °C with HeLa Kyoto [1] (cell cycle stage: mitosis). The thermal stability score in the data set with HeLa Kyoto [2] (setting [5]) is -0.131; in the data set with HeLa Kyoto [2] (cell cycle stage: mitosis) it was 0.0128. Besides, the “solubility change mitosis (log2)” value in the data set on HeLa Kyoto [3] was 0.114. Also, the “solubility in G1/S (log2)” value with HeLa Kyoto [4] is -0.00517.

Take “MSSNCTSTTAVAVAPLSASKTKTKKKHFVCQKVKLFRASEPILSVLMWGVNHTINELSNVPVPVMLMPDDFKAYSKIKVDNHLFNKENLPSRFKFKEYCPMVFRNLRERFGIDDQDYQNSVTRSAPINSDSQGRCGTRFLTTYDRRFVIKTVSSEDVAEMHNILKKYHQFIVECHGNTLLPQFLGMYRLTVDGVETYMVVTRNVFSHRLTVHRKYDLKGSTVAREASDKEKAKDLPTFKDNDFLNEGQKLHVGEESKKNFLEKLKRDVEFLAQLKIMDYSLLVGIHDVDRAEQEEMEVEERAEDEECENDGVGGNLLCSYGTPPDSPGNLLSFPRFFGPGEFDPSVDVYAMKSHESSPKKEVYFMAIIDILTPYDTKKKAAHAAKTVKHGAGAEISTVNPEQYSKRFNEFMSNILT [PIP4K2B]”: the melting temperature in the data set with HeLa Kyoto [1] (cell cycle stage: G1/S) was 50.1 °C; in the data set with HeLa Kyoto [1] (cell cycle stage: mitosis), 49 °C. The thermal stability score in the data set with HeLa Kyoto [2] (setting [5]) was 0.758; with HeLa Kyoto [2] (cell cycle stage: mitosis), -0.395. In the data set with HeLa Kyoto [3], the “solubility change mitosis (log2)” value was -0.163. The “solubility in G1/S (log2)” value with HeLa Kyoto [4] was determined as 0.335.

“MSSPSPGKRRMDTDVVKLIESKHEVTILGGLNEFVVKFYGPQGTPYEGGVWKVRVDLPDKYPFKSPSIGFMNKIFHPNIDEASGTVCLDVINQTWTALYDLTNIFESFLPQLLAYPNPIDPLNGDAAAMYLHRPEEYKQKIKEYIQKYATEEALKEQEEGTGDSSSESSMSDFSEDEAQDMEL [UBE2H]”: the melting temperature amounted to 52 °C with HeLa Kyoto [1] (cell cycle stage: G1/S) and 52.4 °C with HeLa Kyoto [1] (cell cycle stage: mitosis). Besides, the thermal stability score in the data set with HeLa Kyoto [2] (setting [5]) came out at 0.268; in the data set on HeLa Kyoto [2] (cell cycle stage: mitosis), 0.877. Further, in the data set on HeLa Kyoto [3], the “solubility change mitosis (log2)” value was -0.126. Further, in the data set on HeLa Kyoto [4], the “solubility in G1/S (log2)” value is -0.0237.

Regarding “MSSQSHPDGLSGRDQPVELLNPARVNHMPSTVDVATALPLQVAPSAVPMDLRLDHQFSLPVAEPALREQQLQQELLALKQKQQIQRQILIAEFQRQHEQLSRQHEAQLHEHIKQQQEMLAMKHQQELLEHQRKLERHRQEQELEKQHREQKLQQLKNKEKGKESAVASTEVKMKLQEFVLNKKKALAHRNLNHCISSDPRYWYGKTQHSSLDQSSPPQSGVSTSYNHPVLGMYDAKDDFPLRKTASEPNLKLRSRLKQKVAERRSSPLLRRKDGPVVTALKKRPLDVTDSACSSAPGSGPSSPNNSSGSVSAENGIAPAVPSIPAETSLAHRLVAREGSAAPLPLYTSPSLPNITLGLPATGPSAGTAGQQDAERLTLPALQQRLSLFPGTHLTPYLSTSPLERDGGAAHSPLLQHMVLLEQPPAQAPLVTGLGALPLHAQSLVGADRVSPSIHKLRQHRPLGRTQSAPLPQNAQALQHLVIQQQHQQFLEKHKQQFQQQQLQMNKIIPKPSEPARQPESHPEETEEELREHQALLDEPYLDRLPGQKEAHAQAGVQVKQEPIESDEEEAEPPREVEPGQRQPSEQELLFRQQALLLEQQRIHQLRNYQASMEAAGIPVSFGGHRPLSRAQSSPASATFPVSVQEPPTKPRFTTGLVYDTLMLKHQCTCGSSSSHPEHAGRIQSIWSRLQETGLRGKCECIRGRKATLEELQTVHSEAHTLLYGTNPLNRQKLDSKKLLGSLASVFVRLPCGGVGVDSDTIWNEVHSAGAARLAVGCVVELVFKVATGELKNGFAVVRPPGHHAEESTPMGFCYFNSVAVAAKLLQQRLSVSKILIVDWDVHHGNGTQQAFYSDPSVLYMSLHRYDDGNFFPGSGAPDEVGTGPGVGFNVNMAFTGGLDPPMGDAEYLAAFRTVVMPIASEFAPDVVLVSSGFDAVEGHPTPLGGYNLSARCFGYLTKQLMGLAGGRIVLALEGGHDLTAICDASEACVSALLGNELDPLPEKVLQQRPNANAVRSMEKVMEIHSKYWRCLQRTTSTAGRSLIEAQTCENEEAETVTAMASLSVGVKPAEKRPDEEPMEEEPPL [HDAC4]”, the melting temperature worked out at 53.3 °C with HeLa Kyoto [1] (cell cycle stage: G1/S) and 52.9 °C in the data set with HeLa Kyoto [1] (cell cycle stage: mitosis). The thermal stability score is -0.241 in the data set on HeLa Kyoto [2] (setting [5]) and 0.236 with HeLa Kyoto [2] (cell cycle stage: mitosis). Moreover, the “solubility change mitosis (log2)” value in the data set on HeLa Kyoto [3] is -0.072. In addition, the “solubility in G1/S (log2)” value in the data set with HeLa Kyoto [4] was determined as 0.188.
